Data from patent US7842460B2, “Method for assessing proteolytic enzyme activity using ubiquitin fusion substrate” (Progenra Inc., priority 2004, dated 2010).

What was measured:
[1] = molecular target: T1, yeast ULP1 protein (SUMO protease catalytic domain) (Saccharomyces cerevisiae, UniProt Q02724); assay: Cleavage of SUMO-GPATase by yeast ULP1 (SDS-PAGE); assay type: biochemical; conditions: 3 hours
T1 construct: treatment with the yeast ULP1 protein (SUMO protease catalytic domain)
T1 sequence (Q02724 432-621 limits assumed): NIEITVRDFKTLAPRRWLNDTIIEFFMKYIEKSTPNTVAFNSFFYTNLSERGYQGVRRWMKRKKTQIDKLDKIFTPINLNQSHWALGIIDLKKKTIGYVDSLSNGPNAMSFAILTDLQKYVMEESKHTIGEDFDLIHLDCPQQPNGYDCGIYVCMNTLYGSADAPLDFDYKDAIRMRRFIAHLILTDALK
Description: The SUMO protein was cleaved from a SUMO-GPATase fusion protein by treatment with the yeast ULP1 protein (SUMO protease catalytic domain). Approximately 5 μg SUMO-GPATase were incubated at 30° C. for 3 hours with increasing concentrations of the ULP1 enzyme in a reaction mixture containing 50 mM Tris-HCl pH 7.5, 1 mM EDTA, 10 mM DTT. The reaction was quenched by addition of SDS-PAGE sample buffer, heated, and loaded directly on a 12% SDS-polyacrylamide gel, and electrophoresed. After electrophoresis, the gel was stained to visualize the proteins. […] This inability of the ULP1 enzyme to cut the fusion protein may reflect the occurrence of steric hindrance around the cleavage site, or some partial modification of the junction sequence, e.g. oxidation of the Cysteine residue at the amino-terminal end of GPATase.

[2] = molecular target: T2, ULP1 SUMO protease (Saccharomyces cerevisiae, UniProt Q02724); assay: In vitro GPATase activity assay (coupled GDH assay) of fusion -/+ Ulp1; assay type: biochemical, yeast
T2 construct: treatment with the yeast ULP1 protein (SUMO protease catalytic domain)
T2 sequence (Q02724 432-621 limits assumed): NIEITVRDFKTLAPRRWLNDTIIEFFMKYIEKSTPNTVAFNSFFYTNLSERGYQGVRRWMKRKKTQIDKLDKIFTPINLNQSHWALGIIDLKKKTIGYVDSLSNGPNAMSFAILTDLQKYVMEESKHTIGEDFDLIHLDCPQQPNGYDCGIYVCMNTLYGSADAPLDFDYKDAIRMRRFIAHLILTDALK
Excerpt: GPATase, a glutaminase enzyme, hydrolizes 5-phospho ribosyl pyrophosphate (PRPP) […], 5-phosphoribosyl-(b)1-amine (PRA) and pyrophosphate (PPi). This glutaminase reaction was monitored by measuring the production of glutamate by means of a coupled glutamate dehydrogenase (GDH) assay under standard reaction conditions described by Messenger and Zalkin (1979).
[…]
The coupled GDH assay employed to assess GPATase activity was examined for accuracy. Increasing amounts of the purified SUMO-GPATase fusion protein, either untreated or cleaved by the ULP1 SUMO protease, were incubated in the presence of glutamine and PRPP for a fixed period of time, and the completed reaction was then used as substrate in a GDH assay. […] This is particularly so at enzyme concentrations of 1 μg or less. Thus, the amount of NAD^+ reduced in the GDH reaction directly correlates with the amount of active GPATase enzyme in the initial reaction. In addition, treatment with ULP1 results in at least a 10-fold increase in the glutaminase activity of GPATase, despite the fact that only partial cleavage of SUMO-GPATase has been observed thus far.

amount of Ulp1 at which cleavage of the fusion was demonstrated ([1]; approx. 5 μg SUMO-GPATase, 30° C.): 0.009 units
completeness of cleavage ([1]; with as much as 78.3 Units Ulp1, 30° C.): cleavage was never fully achieved
B1: SUMO-GPATase: Fusion of SUMO (Smt3) C-terminal Gly-Gly to mature E. coli glutamine phosphoribosylpyrophosphate amidotransferase N-terminus (protein)
chain: CGIVGIAGVMPVNQSIYDALTVLQHRGQDAAGIITIDANNCFRLRKANGLVSDVFEARHMQRLQGNMGIGHVRYPTAGSSSASEAQPFYVNSPYGITLAHNGNLTNAHELRKKLFEEKRRHINTTSDSEILLNIFASELDNFRHYPLEADNIFAAIAATNRLIRGAYACVAMIIGHGMVAFRDPNGIRPLVLGKRDIDENRTEYMVASESVALDTLGFDFLRDVAPGEAIYITEEGQLFTRQCADNPVSNPCLFEYVYFARPDSFIDKISVYSARVNMGTKLGEKIAREWEDLDIDVVIPIPETSCDIALEIARILGKPYRQGFVKNRYVGRTFIMPGQQLRRKSVRRKLNANRAEFRDKNVLLVDDSIVRGTTSEQIIEMAREAGAKKVYLASAAPEIRFPNVYGIDMPSATELIAHGREVDEIRQIIGADGLIFQDLNDLIDAVRAENPDIQQFECSVFNGVYVTKDVDQGYLDFLDTLRNDDAKAVQRQNEVENLEMHNEG
modifications: left off: large carriers
notes: Fusion of SUMO (Smt3) C-terminal Gly-Gly to mature E. coli glutamine phosphoribosylpyrophosphate amidotransferase N-terminus
increase in the glutaminase activity of GPATase on treatment with ULP1 ([2]; ULP1-cleaved vs untreated fusion, only partial cleavage): ≥ 10 fold
absorbance at OD 363 in GDH assay (GPATase activity) ([2]; absence of Ulp1): this increase of absorbance did not occur
absorbance at OD 363 in GDH assay (GPATase activity) ([2]; fusion incubated 30 minutes with Ulp1): an increase is absorbance
